Source: paper PMC5018218

Key:
Assay in all cases: EMSA
DmcElp3 9-459 = DmcElp3 9-459 (Dehalococcoides mccartyi, UniProt A0A1C7D1B7 9-459)
[1] = molecular target: DmcElp3 wild type (dimer) (Dehalococcoides mccartyi, UniProt A0A1C7D1B7 1-459)
[2] = molecular target: DmcElp3 wild type (monomer) (Dehalococcoides mccartyi, UniProt A0A1C7D1B7 1-459)
DmcElp3 R6A = DmcElp3 R6A (Dehalococcoides mccartyi, UniProt A0A1C7D1B7 1-459, R6A)
DmcElp3 K2A K3A = DmcElp3 K2A K3A (Dehalococcoides mccartyi, UniProt A0A1C7D1B7 1-459, K2A;K3A)

B1: D. mccartyi tRNAGlu-1 (UUC) (structured_RNA)
RNA: GCCCCCAUCGUCUAGAGGCCCAGGACAGCGGCCUUUCACGCCGUCAACAGGGGUUCGAAUCCCCUUGGGGGUACCA
- binding result (DmcElp3 9-459): no binding
- Kd [1]: ~4 µM
- Kd [2]: ~4 µM
- binding result (DmcElp3 R6A): no binding
- binding result (DmcElp3 K2A K3A): no binding
